Reference: patent US20260056186A1 (JIANGSU HENGRUI PHARMACEUTICALS, published 2026)
Values belong to the binder of their own block, whether it stands above or below them.

Key:
[1] = target: T1, APRIL (Acro Biosystems, Cat: APL-H52D1) (UniProt O75888 115-250, limits assumed); test: ELISA, APRIL coated; reference telitacicept; range told of the 3 fusion proteins, upper end tied to B613301 by Table 8
T1 construct: also called ARPIL
T1 sequence (looked up): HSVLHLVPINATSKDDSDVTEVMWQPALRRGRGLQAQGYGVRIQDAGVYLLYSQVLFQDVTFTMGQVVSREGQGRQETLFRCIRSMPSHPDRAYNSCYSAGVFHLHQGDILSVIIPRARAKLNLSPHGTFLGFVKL
Protocol: (§1) The capabilities of B613301, B613302, and B613303, which are fusion proteins of anifrolumab and TACI-BCMA, to bind to BAFF and APRIL were assessed by ELISA as follows: [0548] BAFF (PeproTech, Cat: 310-13) or ARPIL (Acro Biosystems, Cat: APL-H52D1) was diluted to 1 μg/mL with PBS, and a 96-well plate (Costar, Cat: 3590) was coated with the dilution overnight at 4° C. The plate was washed with PBST and blocked with Blocking Buffer (PBST containing 1% BSA) at 37° C. for 1 h. The plate was tapped. The test antibodies were diluted with Blocking Buffer. Incubation was performed at 37° C. for 1.5 h. The plate was washed with PBST. An HRP-mouse anti-human Fc antibody (GenScript, Cat: A01854-200) was diluted with Blocking Buffer. Incubation was performed at 37° C. for 40 min. The plate was washed with PBST. 100 μL of TMB substrate solution (Biopanda, Cat: TMB-S-003) was added, and color development was performed at 37° C. for 3 min. 100 μL of ELISA stop solution (Solarbio, Cat: C1058) was added. OD450 was measured.

[2] = target: T1, APRIL (Acro Biosystems, Cat: APL-H52D1); test: ELISA, APRIL coated at 1 ug/mL, anti-human Fc-HRP, OD450
Protocol: as §1

[3] = target: T1, APRIL (Acro Biosystems, Cat: APL-H52D1); test: ELISA, APRIL coated; reference telitacicept; range told of the 3 fusion proteins, lower end tied to B613302 by Table 8
Protocol: as §1

EC50 relative to telitacicept [1]: 0.167 fold
EC50 [2]: 0.201 nM
Emax [2]: 2.49
B1: B613301 (other)
heavy: EVQLVQSGAEVKKPGESLKISCKGSGYIFTNYWIAWVRQMPGKGLESMGIIYPGDSDIRYSPSFQGQVTISADKSITTAYLQWSSLKASDTAMYYCARHDIEGFDYWGRGTLVTVSSASTKGPSVFPLAPSSKSTSGGTAALGCLVKDYFPEPVTVSWNSGALTSGVHTFPAVLQSSGLYSLSSVVTVPSSSLGTQTYICNVNHKPSNTKVDKRVEPKSCDKTHTCPPCPAPEFEGGPSVFLFPPKPKDTLMISRTPEVTCVVVDVSHEDPEVKFNWYVDGVEVHNAKTKPREEQYNSTYRVVSVLTVLHQDWLNGKEYKCKVSNKALPASIEKTISKAKGQPREPQVYTLPPSRDELTKNQVSLTCLVKGFYPSDIAVEWESNGQPENNYKTTPPVLDSDGSFFLYSKLTVDKSRWQQGNVFSCSVMHEALHNHYTQKSLSLSPGK
light: EIVLTQSPGTLSLSPGERATLSCRASQSVSSSFFAWYQQKPGQAPRLLIYGASSRATGIPDRLSGSGSGTDFTLTITRLEPEDFAVYYCQQYDSSAITFGQGTRLEIKRTVAAPSVFIFPPSDEQLKSGTASVVCLLNNFYPREAKVQWKVDNALQSGNSQESVTEQDSKDSTYSLSSTLTLSKADYEKHKVYACEVTHQGLSSPVTKSFNRGECGGGGSGGGGSLSCRKEQGKFYDHLLRDCISCASICGQHPKQCAYFCENKLRSPGMLQMAGQCSQNEYFDSLLHACIPCQLRCSSNTPPLTCQRYCNASVTNSVKGTNA
notes: Fusion protein of anifrolumab and TACI-BCMA

EC50 [2]: 0.124 nM
Emax [2]: 2.52
EC50 relative to telitacicept [3]: 0.1 fold
B2: B613302 (other)
heavy: B1 heavy
light: EIVLTQSPGTLSLSPGERATLSCRASQSVSSSFFAWYQQKPGQAPRLLIYGASSRATGIPDRLSGSGSGTDFTLTITRLEPEDFAVYYCQQYDSSAITFGQGTRLEIKRTVAAPSVFIFPPSDEQLKSGTASVVCLLNNFYPREAKVQWKVDNALQSGNSQESVTEQDSKDSTYSLSSTLTLSKADYEKHKVYACEVTHQGLSSPVTKSFNRGECGGGGSGGGGSMLQMAGQCSQNEYFDSLLHACIPCQLRCSSNTPPLTCQRYCNASVTNSVKGTNALSCRKEQGKFYDHLLRDCISCASICGQHPKQCAYFCENKLRSPG
notes: as for B1
